Data: patent publication US9920105B2, “Human ferritin-derived fusion polypeptide” (Kyungpook National University Industry-Academic Cooperation …, priority 2013, dated 2018)

T1: IL-4 receptor (Homo sapiens, UniProt P24394)
T1 sequence (P24394 26-825): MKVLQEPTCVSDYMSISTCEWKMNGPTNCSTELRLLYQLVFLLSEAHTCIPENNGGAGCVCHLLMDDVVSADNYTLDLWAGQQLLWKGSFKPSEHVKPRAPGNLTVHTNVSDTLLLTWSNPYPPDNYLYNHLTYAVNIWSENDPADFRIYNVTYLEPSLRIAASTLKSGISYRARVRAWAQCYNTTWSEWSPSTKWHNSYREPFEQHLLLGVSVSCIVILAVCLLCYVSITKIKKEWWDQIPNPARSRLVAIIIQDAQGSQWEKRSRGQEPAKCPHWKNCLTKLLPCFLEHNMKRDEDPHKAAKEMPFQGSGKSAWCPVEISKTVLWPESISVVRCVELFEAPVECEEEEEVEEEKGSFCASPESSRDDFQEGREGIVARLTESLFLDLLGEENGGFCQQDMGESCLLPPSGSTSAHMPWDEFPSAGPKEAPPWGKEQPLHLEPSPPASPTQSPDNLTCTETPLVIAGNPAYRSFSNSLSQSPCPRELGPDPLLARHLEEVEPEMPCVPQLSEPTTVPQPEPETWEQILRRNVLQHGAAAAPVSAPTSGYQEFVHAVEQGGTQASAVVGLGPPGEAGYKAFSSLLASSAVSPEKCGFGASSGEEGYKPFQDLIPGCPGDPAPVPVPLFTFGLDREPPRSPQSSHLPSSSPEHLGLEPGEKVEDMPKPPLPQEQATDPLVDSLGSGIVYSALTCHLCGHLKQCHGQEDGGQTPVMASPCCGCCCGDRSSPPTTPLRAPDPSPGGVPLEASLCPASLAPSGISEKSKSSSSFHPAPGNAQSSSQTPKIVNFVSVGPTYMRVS


Tests used:
[1] = tested on: A549 cells overexpressing IL-4 receptor; experiment: Cell binding test using confocal microscope; type: cell-based; conditions: 400 nM, 4° C., 20 min, FIG. 6
Experimental: First, A549 cells were grown to about 80% confluence in a 100 mm-diameter plate. The plated cells were washed twice with PBS, and detached from the plate using Trypsin/EDTA. Then, 2×10^5/100 ul cells were suspended in PBS containing 1% bovine serum albumin (BSA), and incubated at 4° C. for 30 min. After washing twice with PBS, the ferritin without AP1 insertion and the AP1-inserted ferritin were diluted to 400 nM in buffer (20 mM Tris, 150 mM NaCl, 180 mM Histidine), and then allowed to bind at 4° C. for 20 min. After washing twice with PBS, the ferritin light chain antibody (D-18, sc-14420) was diluted to 1:400 in PBS buffer containing 1% BSA, and incubated in ice for 30 min. After washing twice with PBS, Alexa Fluor 488 donkey anti-goat IgG (H+L) antibody was diluted to 1:200 in PBS containing 1% BSA, and then incubated in ice for 30 min. After washing twice with PBS, 4% paraformaldehyde (PFA) was added for cell fixation, and cells in suspension were added in the 8-well slide chamber. The cells were attached in the chamber by centrifugation at 1000 rpm for 10 min.
After washing twice with PBS, the cells were stained by incubation with 4′,6-diamidino-2-phenylindole (DAPI) for 3 min in dark place, mounted in antifade reagent to close a cover glass, and analyzed by Z-stack type confocal microscopy.

[2] = tested on: A549 cells overexpressing IL-4 receptor; experiment: Cell binding test using flow cytometry (FACS); type: cell-based, human
Experimental: First, A549 cells were grown to about 80% confluence in a 100 mm-diameter plate. The plated cells were washed twice with PBS, and detached from the plate using Trypsin/EDTA. Then, 2×10^5/100 μl cells were suspended in PBS containing 1% bovine serum albumin (BSA), and incubated at 4° C. for 30 min. […] The above blocking procedure was performed on one group, and was not performed on the other group, and the following experiment was performed on both groups. After washing twice with PBS, the ferritin without AP1 insertion and the AP1-inserted ferritin were diluted to 400 nM in buffer (20 mM Tris, 150 mM NaCl, 180 mM Histidine), and then allowed to bind at 4° C. for 20 min. After washing twice with PBS, the ferritin light chain antibody (D-18, sc-14420) was diluted to 1:400 in PBS buffer containing 1% BSA, and incubated in ice for 30 min. After washing twice with PBS, Alexa Fluor 488 donkey anti-goat IgG (H+L) antibody (invitrogen, USA) was diluted to 1:200 in PBS containing 1% BSA, and incubated in ice for 30 min. After washing twice with PBS, the cells were suspended in 500 ul PBS, and analyzed with FACS.
First, A549 cells were grown to about 80% confluence in a 100 φ plate. The plated cells were washed twice with PBS, and detached from the plate using Trypsin/EDTA. […] After washing twice with PBS, the cells were suspended in 500 ul PBS, and then analyzed with FACS.

integrin alphavbeta3 = integrin alphavbeta3 (Homo sapiens, UniProt P05106+P06756); experiment: SPR analysis of binding affinity to integrin alphavbeta3; conditions: FIG. 16
Experimental: Then, 40 mM N-(3-dimethylaminopropyl)-N′-ethylcarbodiimide hydrochloride (EDC)/10 mM N-hydroxy-succinimide (NHS) were allowed to flow over each channel (left, right) of carboxymethyl dextran chip for 7 min for surface activation, and then 200 ul of the prepared alphavbeta3 protein was allowed to flow over the left channel for 7 min for immobilization. Here, the right channel was used as a reference channel. In the two channels, left channel and right channel, 1M ethanolamine (pH 8.5) solution was allowed to flow over the unreacted surface for 7 min for blocking, so as to reduce non-specific adsorption thereof. All test procedures were conducted at a temperature of 25° C. and the flow rate was 25 ul/min.
The buffer (10 mM Hepes pH 7.4, 150 mM NaCl, 180 mM Histidine, 1 mM MgCl2, 0.005% Tween 20) was used through filtering and degassing. The wild type ferritin and the RGD-inserted ferritins were allowed to flow over at concentrations of 0.65 nM, 1.3 nM, 2.6 nM, 5.2 nM, 10.4 nM, 20.8 nM, and 41.6 nM, respectively, for 3 min, and the same buffer was allowed to flow over for 3 min. For regeneration, 2 M NaCl was allowed to flow over for 1 min to wash the proteins remaining without dissociation. […]
(§1) In the binding graph, the RU value expressing the amount of bound protein was measured by subtracting the blank (buffer) value and reference channel (right channel) value, using Scrubber software.

IL-4 receptor = molecular target: T1, IL-4 receptor; experiment: Surface plasmon resonance (SPR) analysis of binding affinity to immobilised IL-4 receptor; conditions: Table 4
Experimental: Here, the right channel was used as a reference channel. In the two channels, left channel and right channel, 1M ethanolamine (pH 8.5) solution was allowed to flow over the unreacted surface for 7 min for blocking, so as to reduce non-specific adsorption thereof. All test procedures were conducted at a temperature of 25° C. and the flow rate was 25 ul/min.
The buffer (20 mM Tris-HCl pH 8.0, 150 mM NaCl, 180 mM Histidine, 62.5 ug/ml BSA, 0.005% Tween 20) was used through filtering and degassing. The wild type ferritin and the AP1-inserted ferritins were allowed to flow over at concentrations of 0.65 nM, 1.3 nM, 2.6 nM, 5.2 nM, 10.4 nM, 20.8 nM, and 41.6 nM for 3 min, and the same buffer was allowed to flow over for 3 min. For regeneration, 2 M NaCl was allowed to flow over for […] to wash the proteins remaining without dissociation. Specific binding values, obtained by subtracting the right channel value from the left channel value, in the concentration ranging from 0.65 nM to 10.4 nM, were plotted on a graph.
AP1 peptide was allowed to flow over at concentrations of 3.125 uM, 6.25 uM, 12.5 uM, 25 uM, and 50 uM for 3 min, and the same buffer was allowed to flow over for 3 min. For regeneration, 2 M NaCl was allowed to flow over for 1 min to wash the proteins remaining without dissociation. Specific binding values, obtained by subtracting the right channel value from the left channel value, in the respective concentrations, were plotted on a graph (see FIG. 8).
as §1, with “software. The KD value was obtained from the binding RU (Req) values measured at the respective concentrations using KaleidaGraph software.” for “software.”
The experiment was conducted like in example <5-1>, and RU values shown for concentrations ranging from 0.65 nM to 41.6 nM were plotted on a graph using GraphPad prism 4 program.
For comparison of binding affinity between FTL-AP1 and FTL-AP1_AP1, surface plasmon resonance analysis was conducted. Analysis was conducted by the same method as in Example <5-1>. The binding of FTL-AP1 was analyzed at concentrations of 0.26 nM, 1.041 nM, 2.083 nM, and 4.166 nM, respectively, and the binding of FTL-AP1_AP1 was analyzed at concentrations of 0.520 nM, 1.041 nM, 2.083 nM, and 4.166 nM, respectively.

integrin alphavbeta3, sequence (P06756 31-1048): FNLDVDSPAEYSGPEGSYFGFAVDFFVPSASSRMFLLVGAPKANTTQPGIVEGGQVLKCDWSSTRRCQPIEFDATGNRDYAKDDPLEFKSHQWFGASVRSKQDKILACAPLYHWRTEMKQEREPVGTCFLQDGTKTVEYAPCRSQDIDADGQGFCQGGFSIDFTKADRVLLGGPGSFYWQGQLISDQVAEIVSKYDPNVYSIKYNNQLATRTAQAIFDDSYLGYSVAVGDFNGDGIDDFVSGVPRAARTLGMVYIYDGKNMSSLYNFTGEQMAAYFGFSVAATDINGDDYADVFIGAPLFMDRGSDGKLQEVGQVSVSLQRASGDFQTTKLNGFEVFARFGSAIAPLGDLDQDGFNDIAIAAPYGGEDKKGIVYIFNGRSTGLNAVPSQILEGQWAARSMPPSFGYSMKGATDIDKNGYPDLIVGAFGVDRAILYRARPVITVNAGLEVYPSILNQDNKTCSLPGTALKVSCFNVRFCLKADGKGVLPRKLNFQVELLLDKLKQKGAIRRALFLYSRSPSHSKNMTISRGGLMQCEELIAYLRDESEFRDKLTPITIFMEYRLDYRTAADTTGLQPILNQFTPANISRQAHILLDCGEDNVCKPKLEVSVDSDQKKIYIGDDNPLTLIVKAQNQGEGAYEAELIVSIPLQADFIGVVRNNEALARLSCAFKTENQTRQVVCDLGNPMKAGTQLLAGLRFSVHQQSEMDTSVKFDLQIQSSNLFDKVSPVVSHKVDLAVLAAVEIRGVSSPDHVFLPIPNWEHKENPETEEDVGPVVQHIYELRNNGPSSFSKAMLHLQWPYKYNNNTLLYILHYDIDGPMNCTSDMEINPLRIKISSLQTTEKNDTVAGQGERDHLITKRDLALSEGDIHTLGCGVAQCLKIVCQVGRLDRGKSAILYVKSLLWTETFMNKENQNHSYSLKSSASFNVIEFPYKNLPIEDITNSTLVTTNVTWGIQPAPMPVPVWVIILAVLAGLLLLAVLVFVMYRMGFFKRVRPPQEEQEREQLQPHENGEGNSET
integrin alphavbeta3, sequence (P05106 27-788): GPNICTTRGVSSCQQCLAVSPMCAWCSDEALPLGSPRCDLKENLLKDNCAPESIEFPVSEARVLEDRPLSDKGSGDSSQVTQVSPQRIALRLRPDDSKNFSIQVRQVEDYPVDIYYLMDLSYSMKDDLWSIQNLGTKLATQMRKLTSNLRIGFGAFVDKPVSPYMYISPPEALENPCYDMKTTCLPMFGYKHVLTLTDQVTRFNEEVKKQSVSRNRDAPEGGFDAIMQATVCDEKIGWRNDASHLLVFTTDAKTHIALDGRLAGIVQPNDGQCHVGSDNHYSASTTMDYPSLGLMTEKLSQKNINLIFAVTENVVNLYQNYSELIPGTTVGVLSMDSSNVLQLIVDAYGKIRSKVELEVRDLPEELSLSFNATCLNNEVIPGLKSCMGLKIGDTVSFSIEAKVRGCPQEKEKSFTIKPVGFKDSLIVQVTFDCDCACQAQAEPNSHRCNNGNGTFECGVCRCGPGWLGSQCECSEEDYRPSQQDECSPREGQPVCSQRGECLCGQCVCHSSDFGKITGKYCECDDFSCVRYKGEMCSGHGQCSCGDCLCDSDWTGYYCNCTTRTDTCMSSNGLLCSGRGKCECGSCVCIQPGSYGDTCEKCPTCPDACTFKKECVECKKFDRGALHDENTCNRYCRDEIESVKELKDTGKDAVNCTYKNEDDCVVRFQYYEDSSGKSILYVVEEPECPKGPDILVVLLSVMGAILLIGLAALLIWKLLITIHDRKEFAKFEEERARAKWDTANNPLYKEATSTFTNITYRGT

Molecule | binding to integrin alphavbeta3 (integrin alphavbeta3) | Koff (IL-4 receptor) | Kon (IL-4 receptor) | other results
wild type ferritin: human ferritin light chain (SEQ ID NO: 1) without AP1 insertion, control cage [reference compound] | – | – | – | binding to A549 cells / cell membrane (confocal microscopy) [1]: did not bind to A549 cells; binding to IL-4 receptor in A549 cells (FACS) ([2]; 400 nM, 4° C., 20 min, FIG. 5): did not bind to IL-4 receptor
FTL-GRGDSP-AP1: ferritin having inserted GRGDSP and AP1 peptides (protein, left off: small tags and cut ends, ferritin having inserted GRGDSP and AP1 peptides) MGRGDSPGGGSGMSSQIRQNYSTDVEAAVNSLVNLYLQASYTYLSLGFYFDRDDVALEGVSHFFRELAEEKREGYERLLKMQNQRGGRALFQDIKKPAEDEWGKTPDAMKAAMALEKKLNQALLDLHALGSARTDPHLCDFLETHFLDEEVKLIKKMGDHLTNLHRGSRKRLDRNGGPEAGLGEYLFERLTLKHD | bound to integrin alphavbeta3 in a concentration-dependent manner | – | – | –
FTL-AP1_AP1: fusion polypeptide in which AP1S was additionally fused to N-terminal of FTL_GG-AP1S (protein, left off: small tags and cut ends) MRKRLDRNGGGSGMSSQIRQNYSTDVEAAVNSLVNLYLQASYTYLSLGFYFDRDDVALEGVSHFFRELAEEKREGYERLLKMQNQRGGRALFQDIKKPAEDEWGKTPDAMKAAMALEKKLNQALLDLHALGSARTDPHLCDFLETHFLDEEVKLIKKMGDHLTNLHRGSRKRLDRNGGPEAGLGEYLFERLTLKHD | – | 3.8 × 10^−5 S^−1 | 8.26 × 10^5 M^−1S^−1 | amount bound to IL-4 receptor compared with FTL-AP1 (FACS) ([2]; at 400 nM and 200 nM, FIG. 13): larger amount than FTL-AP1
GG-AP1S: human ferritin light chain with AP1S (RKRLDRN) inserted in GG cassette of the fourth loop; named FTL-AP1 in Examples 6-9 (protein, left off: small tags and cut ends) MSSQIRQNYSTDVEAAVNSLVNLYLQASYTYLSLGFYFDRDDVALEGVSHFFRELAEEKREGYERLLKMQNQRGGRALFQDIKKPAEDEWGKTPDAMKAAMALEKKLNQALLDLHALGSARTDPHLCDFLETHFLDEEVKLIKKMGDHLTNLHRGSRKRLDRNGGPEAGLGEYLFERLTLKHD | – | 1.25 ± 0.4 × 10^−3 S^−1 | 1.22 ± 0.64 × 10^6 M^−1S^−1 | –
FTL-RGD-AP1: human ferritin light chain with inserted RGD and AP1 peptides (AP1 exchanged with RGD relative to FTL-AP1_RGD) (protein, left off: small tags and cut ends) MRGDGGGSGMSSQIRQNYSTDVEAAVNSLVNLYLQASYTYLSLGFYFDRDDVALEGVSHFFRELAEEKREGYERLLKMQNQRGGRALFQDIKKPAEDEWGKTPDAMKAAMALEKKLNQALLDLHALGSARTDPHLCDFLETHFLDEEVKLIKKMGDHLTNLHRGSRKRLDRNGGPEAGLGEYLFERLTLKHD | bound to integrin alphavbeta3 in a concentration-dependent manner | – | – | –
